Test results: patent US20210324374

Target: Insulin (UniProt P01308+P01308)
Assay: flow
Settings: dT replaced by C8-alkyne-dU clicked with phenylalanine azide (positions incorporated by polymerase); bead-based assay, buffer

Sequence of Insulin (P01308 25-54, chain 1 of 2): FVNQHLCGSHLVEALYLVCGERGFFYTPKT
Sequence of Insulin (P01308 90-110, chain 2 of 2): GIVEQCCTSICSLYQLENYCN

GCGCATACCAGCTTATTCAATCGTCGAGAACTCCTCCGGCTCTAACTCCGATTATAGCCAAAGATAGTAAGTGCAATCTCGGC [Ins24]
Kd: 2560 nM
